Data: patent US20200216522A1 (DENALI THERAPEUTICS, published 2020)

Target: T1, full-length human Tau (Tau441; 2N4R), recombinant (human, UniProt P10636 1-758)
T1 construct: made in E. coli, His6-Smt3 tag removed; biotinylated through amines for Octet and phage work; also called r-Tau; recombinant Tau
Assay: SPR Biacore
Experimental: IgG was purified with protein A affinity chromatography. The affinity of each hulC7 IgG variant for r-Tau was determined by surface plasmon resonance using a Biacore™ T200 instrument. Biacore™ Series S CM5 sensor chips were immobilized with monoclonal mouse anti-human IgG (Fc) antibody (Human antibody capture kit from GE Healthcare). Serial 3-fold dilutions of each hulC7 variant were injected at a flow rate of […]. Each sample was analyzed with 3-minute association and 10-minute dissociation. After each injection, the chip was regenerated using 3 M MgCl₂. Binding response was corrected by subtracting the RU from a flow cell capturing an irrelevant IgG at similar density. A 1:1 Languir model of simultaneous fitting of kₒₙ and koff was used for kinetics analysis.
A further round of affinity maturation was performed by mutating certain amino acids in selected CDR-H1, CDR-L1, and CDR-L3 sequences from Table 9A, as well as the sequence of CDR-H2 (SEQ ID NO:23) of hulC7.v2. Sequence changes were identified in each CDR (Table 9B). Binding affinities were evaluated using Biacore™ (Table 10B).

T1 sequence (P10636 other isoform, or with tags, fused parts or gaps limits assumed): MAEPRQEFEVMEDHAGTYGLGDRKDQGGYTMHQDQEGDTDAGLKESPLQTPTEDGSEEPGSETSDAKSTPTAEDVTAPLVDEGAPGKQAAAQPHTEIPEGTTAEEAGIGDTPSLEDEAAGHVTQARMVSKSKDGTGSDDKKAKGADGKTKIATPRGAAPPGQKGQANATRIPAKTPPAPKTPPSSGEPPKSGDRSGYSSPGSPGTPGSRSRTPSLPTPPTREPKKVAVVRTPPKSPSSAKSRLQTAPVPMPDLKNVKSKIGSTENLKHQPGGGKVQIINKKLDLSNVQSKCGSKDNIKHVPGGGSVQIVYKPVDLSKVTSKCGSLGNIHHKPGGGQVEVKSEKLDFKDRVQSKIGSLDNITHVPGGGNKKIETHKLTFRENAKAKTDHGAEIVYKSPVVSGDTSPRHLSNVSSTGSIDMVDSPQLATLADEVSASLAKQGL

| Binder | Kd [nM] | koff [s⁻¹] | kon [M⁻¹ s⁻¹] |
| --- | --- | --- | --- |
| Clone with H1_2-1 (antibody, V domains shown, based on hu1C7.v2) VH: EVQLLESGGGLVQPGGSLRLSCAASGFTFSSVGTSWVRQAPGKGLEWVASISGDGGSYIHYADSVKGRFTISRDNSKNTLYLQMNSLRAEDTAVYYCARLPYWGQGTLVTVSS VL: DIVMTQSPDSLAVSLGERATINCKSSQSLLNSGNQKNYLTWYQQKPGQPPKLLIYWASTRESGVPDRFSGSGSGTDFTLTISSLQAEDVAVYYCQQYNSYPLTFGQGTKVEIKR | 1.3 | 0.000183 | 141000 |
| Clone with H1_4-3 (antibody, V domains shown, based on hu1C7.v2) VH: EVQLLESGGGLVQPGGSLRLSCAASGFMFSGPGMSWVRQAPGKGLEWVASISGDGGSYIHYADSVKGRFTISRDNSKNTLYLQMNSLRAEDTAVYYCARLPYWGQGTLVTVSS VL: DIVMTQSPDSLAVSLGERATINCKSSQSLLNSGNQKNYLTWYQQKPGQPPKLLIYWASTRESGVPDRFSGSGSGTDFTLTISSLQAEDVAVYYCQQYNSYPLTFGQGTKVEIKR | 0.502 | 0.000203 | 404000 |
| Clone with H1_4-4 (antibody, V domains shown, based on hu1C7.v2) VH: EVQLLESGGGLVQPGGSLRLSCAASGFRFSSPGMSWVRQAPGKGLEWVASISGDGGSYIHYADSVKGRFTISRDNSKNTLYLQMNSLRAEDTAVYYCARLPYWGQGTLVTVSS VL: DIVMTQSPDSLAVSLGERATINCKSSQSLLNSGNQKNYLTWYQQKPGQPPKLLIYWASTRESGVPDRFSGSGSGTDFTLTISSLQAEDVAVYYCQQYNSYPLTFGQGTKVEIKR | 3.81 | 0.00126 | 331000 |
| Clone with H1_2-4 (antibody, V domains shown, based on hu1C7.v2) VH: EVQLLESGGGLVQPGGSLRLSCAASGFTFSLVGTSWVRQAPGKGLEWVASISGDGGSYIHYADSVKGRFTISRDNSKNTLYLQMNSLRAEDTAVYYCARLPYWGQGTLVTVSS VL: DIVMTQSPDSLAVSLGERATINCKSSQSLLNSGNQKNYLTWYQQKPGQPPKLLIYWASTRESGVPDRFSGSGSGTDFTLTISSLQAEDVAVYYCQQYNSYPLTFGQGTKVEIKR | 1.41 | 0.000151 | 107000 |
| Clone with H1_4-2 (antibody, V domains shown, based on hu1C7.v2) VH: EVQLLESGGGLVQPGGSLRLSCAASGFQFSGPGMSWVRQAPGKGLEWVASISGDGGSYIHYADSVKGRFTISRDNSKNTLYLQMNSLRAEDTAVYYCARLPYWGQGTLVTVSS VL: DIVMTQSPDSLAVSLGERATINCKSSQSLLNSGNQKNYLTWYQQKPGQPPKLLIYWASTRESGVPDRFSGSGSGTDFTLTISSLQAEDVAVYYCQQYNSYPLTFGQGTKVEIKR | 0.416 | 0.000128 | 308000 |
| Clone with H1_4-5 (antibody, V domains shown, based on hu1C7.v2) VH: EVQLLESGGGLVQPGGSLRLSCAASGFRFSGYGMSWVRQAPGKGLEWVASISGDGGSYIHYADSVKGRFTISRDNSKNTLYLQMNSLRAEDTAVYYCARLPYWGQGTLVTVSS VL: DIVMTQSPDSLAVSLGERATINCKSSQSLLNSGNQKNYLTWYQQKPGQPPKLLIYWASTRESGVPDRFSGSGSGTDFTLTISSLQAEDVAVYYCQQYNSYPLTFGQGTKVEIKR | 0.591 | 0.000163 | 276000 |
| Clone with H1_4-1 (antibody, V domains shown, based on hu1C7.v2) VH: EVQLLESGGGLVQPGGSLRLSCAASGFTFSGPGMSWVRQAPGKGLEWVASISGDGGSYIHYADSVKGRFTISRDNSKNTLYLQMNSLRAEDTAVYYCARLPYWGQGTLVTVSS VL: DIVMTQSPDSLAVSLGERATINCKSSQSLLNSGNQKNYLTWYQQKPGQPPKLLIYWASTRESGVPDRFSGSGSGTDFTLTISSLQAEDVAVYYCQQYNSYPLTFGQGTKVEIKR | 0.837 | 0.000144 | 172000 |
| Clone with H1_2-2 (antibody, V domains shown, based on hu1C7.v2) VH: EVQLLESGGGLVQPGGSLRLSCAASGFTFSMVGTSWVRQAPGKGLEWVASISGDGGSYIHYADSVKGRFTISRDNSKNTLYLQMNSLRAEDTAVYYCARLPYWGQGTLVTVSS VL: DIVMTQSPDSLAVSLGERATINCKSSQSLLNSGNQKNYLTWYQQKPGQPPKLLIYWASTRESGVPDRFSGSGSGTDFTLTISSLQAEDVAVYYCQQYNSYPLTFGQGTKVEIKR | 0.759 | 9.71e-05 | 128000 |
| Clone with H2_1 (antibody, V domains shown, based on hu1C7.v2) VH: EVQLLESGGGLVQPGGSLRLSCAASGFTFSSYGMSWVRQAPGKGLEWVASISGEGGSYIHYADSVKGRFTISRDNSKNTLYLQMNSLRAEDTAVYYCARLPYWGQGTLVTVSS VL: DIVMTQSPDSLAVSLGERATINCKSSQSLLNSGNQKNYLTWYQQKPGQPPKLLIYWASTRESGVPDRFSGSGSGTDFTLTISSLQAEDVAVYYCQQYNSYPLTFGQGTKVEIKR | 8.28 | 0.00369 | 446000 |
| Clone with H1_2-3 (antibody, V domains shown, based on hu1C7.v2) VH: EVQLLESGGGLVQPGGSLRLSCAASGFTFSQVGTSWVRQAPGKGLEWVASISGDGGSYIHYADSVKGRFTISRDNSKNTLYLQMNSLRAEDTAVYYCARLPYWGQGTLVTVSS VL: DIVMTQSPDSLAVSLGERATINCKSSQSLLNSGNQKNYLTWYQQKPGQPPKLLIYWASTRESGVPDRFSGSGSGTDFTLTISSLQAEDVAVYYCQQYNSYPLTFGQGTKVEIKR | 0.477 | 9.39e-05 | 197000 |
| Clone with H1_2-5 (antibody, V domains shown, based on hu1C7.v2) VH: EVQLLESGGGLVQPGGSLRLSCAASGFTFSKVGTSWVRQAPGKGLEWVASISGDGGSYIHYADSVKGRFTISRDNSKNTLYLQMNSLRAEDTAVYYCARLPYWGQGTLVTVSS VL: DIVMTQSPDSLAVSLGERATINCKSSQSLLNSGNQKNYLTWYQQKPGQPPKLLIYWASTRESGVPDRFSGSGSGTDFTLTISSLQAEDVAVYYCQQYNSYPLTFGQGTKVEIKR | 0.578 | 0.000144 | 249000 |

Other lines, results leading:

| Kd [nM] | koff [s⁻¹] | kon [M⁻¹ s⁻¹] | Binder |
| --- | --- | --- | --- |
| 3.79 | 0.00175 | 462000 | Clone with H2_6 (antibody, V domains shown, based on hu1C7.v2) VH: not shown VL: DIVMTQSPDSLAVSLGERATINCKSSQSLLNSGNQKNYLTWYQQKPGQPPKLLIYWASTRESGVPDRFSGSGSGTDFTLTISSLQAEDVAVYYCQQYNSYPLTFGQGTKVEIKR |
| 0.577 | 0.000662 | 1.15e+06 | Clone with L1_4 (antibody, V domains shown, based on hu1C7.v2) VH: EVQLLESGGGLVQPGGSLRLSCAASGFTFSSYGMSWVRQAPGKGLEWVASISGDGGSYIHYADSVKGRFTISRDNSKNTLYLQMNSLRAEDTAVYYCARLPYWGQGTLVTVSS VL: not shown |
| 9.68 | 0.00408 | 422000 | Clone with H2_3 (antibody, V domains shown, based on hu1C7.v2) VH: EVQLLESGGGLVQPGGSLRLSCAASGFTFSSYGMSWVRQAPGKGLEWVASISGSGGSYIHYADSVKGRFTISRDNSKNTLYLQMNSLRAEDTAVYYCARLPYWGQGTLVTVSS VL: DIVMTQSPDSLAVSLGERATINCKSSQSLLNSGNQKNYLTWYQQKPGQPPKLLIYWASTRESGVPDRFSGSGSGTDFTLTISSLQAEDVAVYYCQQYNSYPLTFGQGTKVEIKR |
| 9.11 | 0.00378 | 415000 | Clone with H2_2 (antibody, V domains shown, based on hu1C7.v2) VH: EVQLLESGGGLVQPGGSLRLSCAASGFTFSSYGMSWVRQAPGKGLEWVASISGTGGSYIHYADSVKGRFTISRDNSKNTLYLQMNSLRAEDTAVYYCARLPYWGQGTLVTVSS VL: DIVMTQSPDSLAVSLGERATINCKSSQSLLNSGNQKNYLTWYQQKPGQPPKLLIYWASTRESGVPDRFSGSGSGTDFTLTISSLQAEDVAVYYCQQYNSYPLTFGQGTKVEIKR |
| 0.665 | 0.00078 | 1.17e+06 | Clone with L1_6 (antibody, V domains shown, based on hu1C7.v2) VH: EVQLLESGGGLVQPGGSLRLSCAASGFTFSSYGMSWVRQAPGKGLEWVASISGDGGSYIHYADSVKGRFTISRDNSKNTLYLQMNSLRAEDTAVYYCARLPYWGQGTLVTVSS VL: DIVMTQSPDSLAVSLGERATINCKSSQSLLQSGNQKNYLTWYQQKPGQPPKLLIYWASTRESGVPDRFSGSGSGTDFTLTISSLQAEDVAVYYCQQYNSYPLTFGQGTKVEIKR |
| 1.39 | 0.000885 | 636000 | Clone with L1_5 (antibody, V domains shown, based on hu1C7.v2) VH: EVQLLESGGGLVQPGGSLRLSCAASGFTFSSYGMSWVRQAPGKGLEWVASISGDGGSYIHYADSVKGRFTISRDNSKNTLYLQMNSLRAEDTAVYYCARLPYWGQGTLVTVSS VL: DIVMTQSPDSLAVSLGERATINCKSSQSLLSSGNQKNYLTWYQQKPGQPPKLLIYWASTRESGVPDRFSGSGSGTDFTLTISSLQAEDVAVYYCQQYNSYPLTFGQGTKVEIKR |
| 3.79 | 0.00176 | 465000 | Clone with H2_5 (antibody, V domains shown, based on hu1C7.v2) VH: EVQLLESGGGLVQPGGSLRLSCAASGFTFSSYGMSWVRQAPGKGLEWVASISGDGGSYIHYASSVKGRFTISRDNSKNTLYLQMNSLRAEDTAVYYCARLPYWGQGTLVTVSS VL: DIVMTQSPDSLAVSLGERATINCKSSQSLLNSGNQKNYLTWYQQKPGQPPKLLIYWASTRESGVPDRFSGSGSGTDFTLTISSLQAEDVAVYYCQQYNSYPLTFGQGTKVEIKR |
| 6.4 | 0.00309 | 484000 | Clone with H2_4 (antibody, V domains shown, based on hu1C7.v2) VH: EVQLLESGGGLVQPGGSLRLSCAASGFTFSSYGMSWVRQAPGKGLEWVASISGDAGSYIHYADSVKGRFTISRDNSKNTLYLQMNSLRAEDTAVYYCARLPYWGQGTLVTVSS VL: DIVMTQSPDSLAVSLGERATINCKSSQSLLNSGNQKNYLTWYQQKPGQPPKLLIYWASTRESGVPDRFSGSGSGTDFTLTISSLQAEDVAVYYCQQYNSYPLTFGQGTKVEIKR |
